This note sets out measurements from patent US20250129168A1 (DREN BIO, published 2025).

Assay [1] deals with T1, human Dectin-1 (isoform not given) (human, UniProt Q9BXN2 1-247).
T1 chain: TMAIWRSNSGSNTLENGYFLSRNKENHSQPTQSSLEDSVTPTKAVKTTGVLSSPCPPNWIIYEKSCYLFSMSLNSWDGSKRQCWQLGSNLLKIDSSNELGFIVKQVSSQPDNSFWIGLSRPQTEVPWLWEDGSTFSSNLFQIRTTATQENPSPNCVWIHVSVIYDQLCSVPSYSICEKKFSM
Nature of the assay: cell-based or functional assay.

The target in assay [2] is T2, cynomolgus monkey Dectin-1 (cynomolgus monkey, UniProt A0A2K5UXY6 35-281).
T2 construct: whole, on cells; also called cynomolgus Dectin-1; cyno Dectin-1
T2 sequence: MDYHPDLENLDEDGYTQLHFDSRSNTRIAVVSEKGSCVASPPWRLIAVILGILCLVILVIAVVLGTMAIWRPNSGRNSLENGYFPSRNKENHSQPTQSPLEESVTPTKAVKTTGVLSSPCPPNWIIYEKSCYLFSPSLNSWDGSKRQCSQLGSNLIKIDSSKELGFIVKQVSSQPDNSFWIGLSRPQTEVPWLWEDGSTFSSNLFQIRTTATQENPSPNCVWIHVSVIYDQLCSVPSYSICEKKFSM
Nature of the assay: flow cytometry, cynomolgus monkey monocytes. (In flow cytometry, cells or beads pass a laser one at a time.)

Assay [3] addresses T1, human Dectin-1 (isoform not given). Nature of the assay: flow cytometry on human monocytes.
The target of assay [4] is T3, human Dectin-1 isoform A (human, UniProt Q9BXN2 1-247).
T3 construct: On HEK-Blue hDectin-1a cells (Invivogen); also called hDectin-1a
T3 sequence: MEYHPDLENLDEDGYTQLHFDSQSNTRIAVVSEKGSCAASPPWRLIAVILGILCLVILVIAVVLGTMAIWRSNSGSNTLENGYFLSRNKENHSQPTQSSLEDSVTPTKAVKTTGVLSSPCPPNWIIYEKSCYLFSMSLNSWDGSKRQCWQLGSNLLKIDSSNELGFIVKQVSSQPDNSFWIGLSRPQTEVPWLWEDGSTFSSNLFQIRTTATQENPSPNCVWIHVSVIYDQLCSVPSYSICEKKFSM
Nature of the assay: flow cytometry on HEK-Blue hDectin-1a cells.

Assay [5] concerns the target T4, human Dectin-1 isoform B (human, UniProt Q9BXN2 1-247).
T4 construct: On HEK-Blue hDectin-1b cells (Invivogen); also called hDectin-1b
T4 sequence: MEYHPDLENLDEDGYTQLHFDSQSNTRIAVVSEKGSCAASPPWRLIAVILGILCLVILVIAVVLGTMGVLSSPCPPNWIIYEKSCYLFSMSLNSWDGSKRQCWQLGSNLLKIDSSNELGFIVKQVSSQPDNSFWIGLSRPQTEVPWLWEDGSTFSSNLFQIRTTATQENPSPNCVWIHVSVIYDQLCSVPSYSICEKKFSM
Briefly: flow cytometry on HEK-Blue hDectin-1b cells.

Assay [6] addresses T3, human Dectin-1 isoform A. Nature of the assay: flow cytometry on HEK293F hDectin-1a FL cells.
Assay [7] concerns the target T1, human Dectin-1 (isoform not given). Briefly: flow cytometry on human monocytes (summary table).
The target of assay [8] is T3, human Dectin-1 isoform A. Briefly: flow cytometry on HEK-Blue hDectin-1a cells (summary table).
Assay [9] addresses T4, human Dectin-1 isoform B. Briefly: flow cytometry on HEK-Blue hDectin-1b cells (summary table).
Assay [10] has as its target T3, human Dectin-1 isoform A. Briefly: flow cytometry on HEK293F hDectin-1a FL cells (summary table).
Assay [11] concerns the target T5, Fc gamma receptor CD16a F variant (human, UniProt P08637).
T5 construct: recombinant protein coated on the ELISA plate; also called recombinant huCD16a
Nature of the assay: ELISA, plate coated with recombinant huCD16a (F variant), detection with peroxidase anti-human IgG F(ab')2, OD 450 nm - 630 nm. (In an ELISA, binding on a coated surface is turned into a signal by an enzyme label.)

Assay [12] has as its target T1, human Dectin-1 (isoform not given). Nature of the assay: flow cytometry on Dectin-1-expressing HEK cells.
A further assay concerns the target T6, Trop-2 (human, UniProt P09758 27-323).
T6 construct: whole, on cells
T6 sequence (looked up): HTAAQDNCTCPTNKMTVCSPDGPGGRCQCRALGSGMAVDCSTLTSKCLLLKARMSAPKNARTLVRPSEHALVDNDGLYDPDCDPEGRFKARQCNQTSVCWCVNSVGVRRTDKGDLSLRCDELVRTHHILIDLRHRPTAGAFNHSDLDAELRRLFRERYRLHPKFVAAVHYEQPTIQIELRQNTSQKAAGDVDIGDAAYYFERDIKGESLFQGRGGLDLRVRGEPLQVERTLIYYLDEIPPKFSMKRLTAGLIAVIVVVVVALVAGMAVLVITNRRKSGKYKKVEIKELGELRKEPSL
Briefly: flow cytometry on A431 cells (Trop-2-expressing).

The target of assay [13] is T1, human Dectin-1 (isoform not given). Nature of the assay: flow cytometry on Dectin-1-expressing HEK cells, 4PL fit [upper panel].

T5 sequence (P08637 17-208 limits assumed, change not shown): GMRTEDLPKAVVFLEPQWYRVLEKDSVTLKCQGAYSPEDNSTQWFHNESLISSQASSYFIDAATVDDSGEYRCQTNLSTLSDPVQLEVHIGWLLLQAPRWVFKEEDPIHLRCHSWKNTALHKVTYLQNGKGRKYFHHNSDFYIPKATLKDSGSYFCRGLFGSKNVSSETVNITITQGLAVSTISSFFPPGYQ

B1: commercial anti-Dectin-1 antibody 15E2 (antibody, V domains shown)
VH: QWQLQQSGAELARPGASWKMSCKASGYTFTTYTMHWWKQRPGQGLEWIGYINPSSGYTNYNQKFKDKATLTADKSSSTASMQLSSLTSEDSAWYYCARERAVLVPYAMDYWGQGTSVTVSS
VL: QIVLTQSPAVMSASPGEKWTITCTASSSLSYMHWFQQKPGTSPKLWLYSTSILASGVPTRFSGSGSGTSYSLTISRMEAEDAATYYCQQRSSSPFTFGSGTKLEIK
Regarding B1, in [1], the “IFNg secretion in PBMC, immobilized antibody (fold change to isotype)” value is 1.6 fold change to isotype. Besides, the “IL6 secretion in PBMC, immobilized antibody (fold change to isotype)” value in assay [1] was 2.6 fold change to isotype. Besides, the “TNFa secretion in PBMC, immobilized antibody (fold change to isotype)” value in assay [1] is 3 fold change to isotype. The EC50 (usually the concentration giving half of the maximal effect) in assay [2] turned out to be 14 nM; in assay [3], 0.6 nM; with human Dectin-1 isoform A [4], 1.2 nM; with human Dectin-1 isoform B [5], 9.3 nM; in the assay with human Dectin-1 isoform A [6], 1.4 nM; in [7], 0.6 nM. Besides, the EC50 was 1.2 nM in the assay with human Dectin-1 isoform A [8], 9.3 nM with human Dectin-1 isoform B [9] and 1.4 nM with human Dectin-1 isoform A [10].

B2: 2M24 CD20 NF (bispecific antibody)
chain 1: not shown
chain 2: not shown
chain 3: not shown
chain 4: QIVLSQSPAILSASPGEKVTMTCRASSSVSYIHWFQQKPGSSPKPWIYATSNLASGVPVRFSGSGSGTSYSLTISRVEAEDAATYYCQQWTSNPPTFGGGTKLEIKRTVAAPSVFIFPPSDEQLKSGTASVVCLLNNFYPREAKVQWKVDNALQSGNSQESVTEQDSKDSTYSLSSTLTLSKADYEKHKVYACEVTHQGLSSPVTKSFNRGEC
modifications: non-fucosylated Fc glycan
B2: in assay [11], the 50% effective concentration (EC50 (read off the curve)) – broadly, the concentration needed to bring the measured effect to its halfway point – was approximately 0.1 µg/mL.

B3: 2M24/Trop-2 hIgG1 bispecific antibody (bispecific antibody, V domains shown)
VH 1: QVQLVQSGAEVKKPGASVKVSCKSSGYTFTDYYIHWVRQAPGQGLEWMGWINPNSGDTNYAQKFQGRITMTRDTSISTAYLELSRLRSDDTAVFYCARNSGSYSFGYWGQGTLVTVSS
VL 1: DIQMTQSPSSVSASVGDRVTITCRASQGISSWLAWYQQKPGKAPKLLIFGASSLQSGVPSRFSGSGSGTDFTLTVSSLQPEDFATYYCQQAYSFPFTFGPGTKVDIE
VH 2: QVQLQQSGSELKKPGASVKVSCKASGYTFTNYGMNWVKQAPGQGLKWMGWINTYTGEPTYTDDFKGRFAFSLDTSVSTAYLQISSLKADDTAVYFCARGGFGSSYWYFDVWGQGSLVTVSS
VL 2: DIQLTQSPSSLSASVGDRVSITCKASQDVSIAVAWYQQKPGKAPKLLIYSASYRYTGVPDRFSGSGSGTDFTLTISSLQPEDFAVYYCQQHYITPLTFGAGTKVEIK
notes: Human IgG1; also called anti-Dectin-1 (2M24)/anti-Trop-2 bispecific antibody
B3: the half-maximal effective concentration (EC50 (read off the curve)) in [12] was approximately 3 nM.

B4: parental anti-Trop2 monospecific antibody (antibody, V domains shown)
VH: QVQLQQSGSELKKPGASVKVSCKASGYTFTNYGMNWVKQAPGQGLKWMGWINTYTGEPTYTDDFKGRFAFSLDTSVSTAYLQISSLKADDTAVYFCARGGFGSSYWYFDVWGQGSLVTVSS
VL: DIQLTQSPSSLSASVGDRVSITCKASQDVSIAVAWYQQKPGKAPKLLIYSASYRYTGVPDRFSGSGSGTDFTLTISSLQPEDFAVYYCQQHYITPLTFGAGTKVEIK
On to B4, for which the half-maximal effective concentration (EC50 (read off the curve)) in the assay with Trop-2 was approximately 8 nM.

B5: 2M24/Nectin-4 hIgG1 bispecific antibody (bispecific antibody, V domains shown)
VH 1: QVQLVQSGAEVKKPGASVKVSCKSSGYTFTDYYIHWVRQAPGQGLEWMGWINPNSGDTNYAQKFQGRITMTRDTSISTAYLELSRLRSDDTAVFYCARNSGSYSFGYWGQGTLVTVSS
VL 1: DIQMTQSPSSVSASVGDRVTITCRASQGISSWLAWYQQKPGKAPKLLIFGASSLQSGVPSRFSGSGSGTDFTLTVSSLQPEDFATYYCQQAYSFPFTFGPGTKVDIE
VH 2: EVQLVESGGGLVQPGGSLRLSCAASGFTFSSYNMNWVRQAPGKGLEWVSYISSSSSTIYYADSVKGRFTISRDNAKNSLSLQMNSLRDEDTAVYYCARAYYYGMDVWGQGTTVTVSS
VL 2: DIQMTQSPSSVSASVGDRVTITCRASQGISGWLAWYQQKPGKAPKFLIYAASTLQSGVPSRFSGSGSGTDFTLTISSLQPEDFATYYCQQANSFPPTFGGGTKVEIK
notes: Human IgG1
B5: in assay [13], the midpoint of the response, the EC50, lay at 2.65 nM.
